The results in this text go back to paper PMC12423496.

For the series, the target named is T1, sHdrR-trunc (Hyphomicrobium denitrificans XT) (UniProt D8JT17).
T1 sequence: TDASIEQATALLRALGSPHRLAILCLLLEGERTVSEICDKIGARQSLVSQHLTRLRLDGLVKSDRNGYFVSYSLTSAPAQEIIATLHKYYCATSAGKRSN
Briefly: EMSA. The conditions noted are these: 10 mM Tris-HCl, 50 mM KCl, 1 mM DTT, pH 8.0 (1x of 10x buffer), about 7% glycerol; 20 min RT then 30 min at 30 C with 17 nM DNA; 6% native PAGE, 0.25x TBE, 4 C.

“GGGTCACCAAATTCTGCAGGTCTCAATGCGAATGCGAGGCTGCTCCAGCTAGACGAAAAACAAGGAACGTTGCAATAGATAATTCACATATGATAATTTTCATATGTGTTATAGGATGAACGTTATCGCAGCTTCCGGGAGAGATGGCGTGAT (double strand) [soxA-soxY intergenic region]”: the binding entry is “binds”.

Consider “TCGACAGCTTGCGGAAATCCGCAATCGAGATCGAAGCCATCGATCGTATTCGAATAGCACGTTCAGCTTCTGCGGAAGCGAACAACGCAACCGGCGCCAAGAGATAAATCTACATCGATCGTCGCGCCGGATGCGTTCACGTTGCCAAGGAATTCCTCACCGGCGGAGCCGTGGAATT (double strand)”, for which the binding entry is reported as “no binding”.

Take “TGCCACCTCCCCGATATGCGTGGCTTTTGTTGTTTTGCCACTTCAGTTCTTGTGTAACTTCCTCTTTAGAACCAGTCAATATTACATTCGCATGTTTGAATATTCCATTTTTCTATATGTTCATCGAATTGGAAAAGTTATTCAAATATATCGCGATCGATTGATCGGCGAAGTC (double strand) [upstream of dsrE3C]”: the binding entry is on record as “binds”.

Consider “CGGCCCTCTGAGAAAAGACGCACACGTCGCGCCAAAAACATATGAACATTCGCATGATGGAATATAACAGCCCTGCCGATCGCACAAGGCTCGCTTTAAACGCGGACGCGTCTTCGCAGCGCACACGCATGCGCTGGACGTCCGATCATGTGAAAATTGGGCTGAAGACTCGCTCTA (double strand) [upstream of lipS1]”, for which the binding entry is “binds”.
